{"source": "patent US20250376536A1", "about": "(Bristol-Myers Squibb, published 2025)", "key": {"[1]": {"biological_target": "T1, mouse CD40 on cells (mouse, UniProt P27512 20-289)", "T1 construct": "whole, on cells; also called Mouse CD40-positive macrophage; Mouse CD40-positive B cell", "T1 sequence (looked up)": "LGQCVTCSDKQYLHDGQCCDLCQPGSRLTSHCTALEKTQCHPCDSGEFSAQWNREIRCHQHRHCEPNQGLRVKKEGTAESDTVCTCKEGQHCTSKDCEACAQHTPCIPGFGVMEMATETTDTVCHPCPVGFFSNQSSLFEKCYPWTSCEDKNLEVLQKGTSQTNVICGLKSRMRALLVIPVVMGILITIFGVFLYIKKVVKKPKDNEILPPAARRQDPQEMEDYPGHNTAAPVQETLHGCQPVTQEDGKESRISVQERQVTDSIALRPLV", "experiment": "binding to mouse CD40-positive macrophages"}, "[2]": {"biological_target": "T1, mouse CD40 on cells", "experiment": "binding to mouse CD40-positive B cells"}, "[3]": {"biological_target": "T2, mouse FAP on HEK cells (mouse, UniProt P97321 1-761)", "T2 construct": "whole, on cells; also called Mouse FAP-positive HEK cells; mouse FAP-expressing HEK cells", "T2 sequence (looked up)": "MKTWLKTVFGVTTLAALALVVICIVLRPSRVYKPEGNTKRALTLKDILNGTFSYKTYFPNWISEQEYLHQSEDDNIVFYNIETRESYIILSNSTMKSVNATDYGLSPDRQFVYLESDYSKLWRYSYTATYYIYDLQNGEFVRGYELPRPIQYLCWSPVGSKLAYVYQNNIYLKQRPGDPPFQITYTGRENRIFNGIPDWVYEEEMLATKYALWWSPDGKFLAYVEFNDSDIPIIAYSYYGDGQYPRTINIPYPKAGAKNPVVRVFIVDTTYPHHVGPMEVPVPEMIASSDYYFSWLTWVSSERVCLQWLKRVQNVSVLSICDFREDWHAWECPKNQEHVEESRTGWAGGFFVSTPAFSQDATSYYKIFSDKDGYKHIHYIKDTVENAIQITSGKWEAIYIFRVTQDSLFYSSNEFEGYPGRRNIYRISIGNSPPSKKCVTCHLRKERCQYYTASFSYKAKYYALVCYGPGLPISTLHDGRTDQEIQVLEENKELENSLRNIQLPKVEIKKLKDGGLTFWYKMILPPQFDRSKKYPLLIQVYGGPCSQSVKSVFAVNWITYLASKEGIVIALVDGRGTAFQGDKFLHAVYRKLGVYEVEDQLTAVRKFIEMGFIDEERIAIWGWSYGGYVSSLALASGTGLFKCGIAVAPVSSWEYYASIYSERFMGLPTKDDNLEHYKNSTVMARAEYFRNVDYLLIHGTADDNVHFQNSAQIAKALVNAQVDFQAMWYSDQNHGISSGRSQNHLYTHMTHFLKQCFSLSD", "experiment": "binding to mouse FAP-positive HEK cells"}, "[4]": {"biological_target": "T3, mouse CD40 protein (mouse, UniProt P27512 20-193, limits assumed)", "T3 sequence (looked up)": "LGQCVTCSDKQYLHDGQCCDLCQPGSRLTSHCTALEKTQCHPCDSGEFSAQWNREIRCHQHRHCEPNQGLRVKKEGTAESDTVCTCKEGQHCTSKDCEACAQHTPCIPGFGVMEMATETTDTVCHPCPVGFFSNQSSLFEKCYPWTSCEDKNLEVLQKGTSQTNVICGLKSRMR", "experiment": "SPR"}, "[5]": {"biological_target": "T4, mouse FAP protein (mouse, UniProt P97321 26-761)", "T4 sequence (looked up)": "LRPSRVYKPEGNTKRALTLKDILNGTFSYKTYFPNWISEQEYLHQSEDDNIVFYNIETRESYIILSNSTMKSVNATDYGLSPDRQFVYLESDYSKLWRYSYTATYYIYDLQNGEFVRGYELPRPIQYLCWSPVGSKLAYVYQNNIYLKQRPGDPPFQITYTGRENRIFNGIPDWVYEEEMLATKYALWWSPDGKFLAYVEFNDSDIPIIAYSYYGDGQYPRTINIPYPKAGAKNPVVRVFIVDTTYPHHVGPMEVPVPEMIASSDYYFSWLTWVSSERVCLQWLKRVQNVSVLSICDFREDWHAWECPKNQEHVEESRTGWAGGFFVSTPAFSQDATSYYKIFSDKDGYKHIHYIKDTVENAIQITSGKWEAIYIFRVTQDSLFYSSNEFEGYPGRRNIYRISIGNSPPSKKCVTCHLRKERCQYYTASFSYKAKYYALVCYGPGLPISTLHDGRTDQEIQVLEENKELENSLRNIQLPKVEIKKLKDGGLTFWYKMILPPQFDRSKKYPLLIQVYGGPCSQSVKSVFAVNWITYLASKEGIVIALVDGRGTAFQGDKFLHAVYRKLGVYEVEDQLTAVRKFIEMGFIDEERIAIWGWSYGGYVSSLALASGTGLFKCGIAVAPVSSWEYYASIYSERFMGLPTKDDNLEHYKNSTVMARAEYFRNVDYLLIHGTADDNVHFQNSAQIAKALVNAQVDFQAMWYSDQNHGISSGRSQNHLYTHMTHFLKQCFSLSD", "experiment": "SPR"}, "[6]": {"biological_target": "T1, mouse CD40 on cells", "experiment": "cell-based or functional assay"}}}
{"binder": "mCD40×FAP.LP62 (2+1 anti-mouse CD40×FAP bispecific antibody) (bispecific antibody) EVQLLESGGGLVQPGGSLRLSCAASGFTFSSRGMSWVRQAPGKCLEWVSFISSSGTYVYYADSVKGRFTISRDNSKNTLYLQMNSLRAEDTAVYYCARDLPRTGVYFGMDVWGQGTTVTVSSGGGGSGGGGSGGGGSGGGGSDIQMTQSPSSLSASVGDRVTITCRASQSIFNYLNWYQQKPGKAPKLLIYGASTLQSGVPSRFSGSGSGTDFTLTISSLQPEDFATYYCQESYSTPYTFGCGTKVEIK", "values": [{"measurement": "EC50", "setting": "[1]", "value": 7.3, "unit": "nM"}, {"measurement": "EC50", "setting": "[2]", "value": 12.1, "unit": "nM"}, {"measurement": "EC50", "setting": "[3]", "value": 3.17, "unit": "nM"}, {"measurement": "Kd", "setting": "[4]", "value": 45.8, "unit": "nM"}, {"measurement": "Kd", "setting": "[5]", "value": 3.4, "unit": "nM"}, {"measurement": "CCL22 secretion, murine BMDM + MC38-FAP co-culture, EC50", "setting": "[6]", "value": 1.02, "unit": "nM"}, {"measurement": "IL12p40 secretion, murine BMDM + MC38-FAP co-culture, EC50", "setting": "[6]", "value": 1.43, "unit": "nM"}]}
